Test results: patent publication US20240425583A1, “METHODS AND COMPOSITIONS RELATED TO MCL-1 AND BIM HETERODIMER ANTIBODIES” (priority 2021, published 2024)

B1: HSMCB (SEQ ID NO: 7, SEQ ID NO: 8): MCL-1/BIM heterodimer antibody, CDRs SEQ ID NO: 1-6, variable heavy chain SEQ ID NO: 7, variable light chain SEQ ID NO: 8 (antibody, V domains shown)
VH: MNFGLSLIFLVLVLKGVQCEVQLVESGGDLVKPGGSLKLSCAVSGFTFSSYAMSWVRQTPAKRLEWVATISSGGFATYYPDTVKGRFTISRDNAKNTLYLQMSSLRSEDTAMYYCARHGGGSYGWFAYWGQGTLVTVSE
VL: MLSLAPLLSLLLLCVSDSRAETTVTQSPASLSVATGEKVTIRCITSTDIDDDMNWYQQKPGEPPKLLISEGNTLRPGVPSRFSSSGYGTDFVFTIENTLSEDFADYYCLQSDNMPYTFGGGTKLEIK
B2: HSMCB (SEQ ID NO: 15, SEQ ID NO: 16): MCL-1/BIM heterodimer antibody, CDRs SEQ ID NO: 9-14, variable heavy chain SEQ ID NO: 15, variable light chain SEQ ID NO: 16 (antibody, V domains shown)
VH: MDWIWIMLHLLAAATGLQSQVHLQQSGSELRSPGSSVKLSCKDFDSEVFPIAYMSWVRQKPGHGFEWIGDILPSIGRTIYGEKFEDKATLDADTVSNTAYLELNSLTSEDSAIYYCARQDTYYAMDYWGQGTSVTVSS
VL: MHFQVQIFSFLLISASVIMSRGQIVLTQSPAIMSASPGEKVTITCSASSSVSYMHWVQQKPGTSPKLWIYSTSNLASGVPARFRGSGSGTSYSLTISRMEAEDAATYYCQQRSSYPYTFGGGTKLEIK

Tests used:
Mcl-1 Bim-BH3 complex = target: T1, Mcl-1 Bim-BH3 complex (Homo sapiens, UniProt Q07820); assay: HSMCB on Mcl-1-Bim non-covalently bound beads; type: binding; details: Bim-BH3 10 uM to 50 uM, FIG. 14
T1 construct: mutated to delete their transmembrane domains; made in house; host or cells: E. coli BL21 (D3)

[1] = target: T2, covalent Mcl-1-Bim complex (Homo sapiens, UniProt Q07820); assay: Flow cytometry detection of covalent Mcl-1-Bim complex immobilized on GSH beads; type: binding; details: directly labeled and secondary antibody detection, FIG. 12
T2 construct: mutated to delete their transmembrane domains; made in house; host or cells: E. coli BL21 (D3) for the Mcl-1 fusion; peptide UV-crosslinked to it
Description: In the experiments on the left side of the graph for HSMCB (i.e., the first two columns from the left on the graph), the HSMCB antibody is an antibody having CDRs selected from SEQ ID NO: 1, SEQ ID NO: 2, SEQ ID NO: 3, SEQ ID NO: 4, SEQ ID NO: 5, SEQ ID NO: 6, and having a variable heavy chain selected from SEQ ID NO: 7, and a variable light chain selected from SEQ ID NO: 8. In the next experiment near the middle of the graph for HSMCB (i.e., the second set of two columns in the middle on the graph), the antibody is an antibody having CDRs selected from SEQ ID NO: 9, SEQ ID NO: 10, SEQ ID NO: 11, SEQ ID NO: 12, SEQ ID NO: 13, SEQ ID NO: 14, and having a variable heavy chain selected from SEQ ID NO: 15, and a variable light chain selected from SEQ ID NO: 16. The antibody reactive with BcL-XL-Bim is used as a negative control, and Mcl1 (which recognizes both Mcl-1 monomer and Mcl-1-Bim complex) is used as a positive control. The signals using a directly labeled primary antibody (i.e., the first column in each set of two columns throughout the graph) and a secondary antibody detection system (i.e., the second column in each set of two columns throughout the graph) are shown.
AML patient samples were BH3 profiled in the experiments of this example. […] Patient samples were fixed, permeabilized, stained with HSMCB and anti-Mcl-1 antibody, and measured by flow cytometry. […]

[2] = test system: FFPE breast cancer patient biopsy (BCa_01 NV401); assay: IHC staining of serial sections from a FFPE breast cancer patient biopsy; design: species or system human; details: compared with HSBXB, 10× objective, FIG. 8
Description: The image on the left side of FIG. 8 is of an HSMCB antibody having CDRs selected from SEQ ID NO: 9, SEQ ID NO: 10, SEQ ID NO: 11, SEQ ID NO: 12, SEQ ID NO: 13, SEQ ID NO: 14, and having a variable heavy chain selected from SEQ ID NO: 15, and a variable light chain selected from SEQ ID NO: 16.
In these experiments, PDX stains were used for image analysis software from Leica and Halo were compared for quantitative analysis.

[3] = type: physicochemical
Method: FIG. 2 is a graph showing the selective binding of the MCL-1/BIM heterodimer (HSMCB) antibody to the MCL-1/BIM heterodimer, and the stability of this antibody at 4° C. for about 2 months. Each line in the graph follows the order in the legend (i.e., the top line is for sample 5-01-20b, the next line is for 5-22-20b, the next line is for 5-29b; this pattern is throughout the entire graph). The antibody in this figure is an antibody having CDRs selected from SEQ ID NO: 9, SEQ ID NO: 10, SEQ ID NO: 11, SEQ ID NO: 12, SEQ ID NO: 13, SEQ ID NO: 14, and having a variable heavy chain selected from SEQ ID NO: 15, and a variable light chain selected from SEQ ID NO: 16. […]

T2 sequence (Q07820 1-327): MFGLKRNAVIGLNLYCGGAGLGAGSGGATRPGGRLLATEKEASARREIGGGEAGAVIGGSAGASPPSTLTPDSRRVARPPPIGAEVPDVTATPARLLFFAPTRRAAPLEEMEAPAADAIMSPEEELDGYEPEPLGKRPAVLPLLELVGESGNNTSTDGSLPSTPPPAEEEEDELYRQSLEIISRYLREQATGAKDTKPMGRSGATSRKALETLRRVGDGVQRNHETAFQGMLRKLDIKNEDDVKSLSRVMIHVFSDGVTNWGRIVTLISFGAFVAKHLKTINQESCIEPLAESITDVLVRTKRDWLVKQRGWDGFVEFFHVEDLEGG
T2 sequence (O43521 146-166 partner): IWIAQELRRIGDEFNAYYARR
T1 sequence (Q07820 1-327 limits assumed): as the sequence (Q07820 1-327) above

Molecule | recognition of Mcl-1 Bim-BH3 complex on beads (Mcl-1 Bim-BH3 complex) | Mcl-1-Bim bead detection [1] | IHC reactivity with tissue sample [2] | stability of the antibody at 4° C. [3]
B1 | recognize the Mcl-1 Bim-BH3 complex at a significant level | demonstrated | – | –
B2 | – | demonstrated | higher reactivity | about 2 months
